Measurements as given in article PMC2212291.

What follows are substances tested against mouse class I molecule H-2 D^b (mouse | mouse (endogenous in MC57)).
Substance synthetic LCMV peptide GP276-286 has a binding plus extraction efficiency of 38%. synthetic LCMV peptide GP33-41 gave a binding plus extraction efficiency of 17%. Work on synthetic LCMV peptide NP396-404 yielded a binding plus extraction efficiency of 50%.
